The RNAGym collection of RNA variant scans (doi:10.7554/elife.80360)

B1: Hairpin Ribozyme (parent)
chain: GUCCUCUUUCACGUGCGCGUGAAAGAGAGAAGUGAACCAGAGAAACACACGUUGUGGUAUAUUACCUGGUA

Variants of: B1
Assay: self-cleavage, relative activity (ratio to wild type); higher = more cleavage; co-transcriptional

First: U8G U52A
Second: U8G U52G
The self-cleavage of the first is higher: 0.752 for the first, 0.621 for the second.

Going from C10U A11G to U9G A24G, the self-cleavage falls from 0.734 to 0.672.

Compared with C10A C37G, C10A C37U is higher in self-cleavage: 0.266 for the first, 0.437 for the second.

First: U9A A45G
Second: U9C A11U
The self-cleavage of the first is lower: 0.172 for the first, 0.411 for the second.

Compared with C10A G56A, C10A G56C is lower in self-cleavage: 0.133 for the first, 0.11 for the second.

Compared with U9G A22G, U9G U55C is lower in self-cleavage: 0.79 for the first, 0.163 for the second.

Compared with U9A U60G, U9C G57C is lower in self-cleavage: 0.484 for the first, 0.0619 for the second.

First: C10A G69C
Second: C10A G69A
The self-cleavage of the first is lower: 0.241 for the first, 0.317 for the second.

Going from C10U A59C to C10U A59G, the self-cleavage falls from 0.227 to 0.206.

First: U9A A43C
Second: U9A A43G
The self-cleavage of the first is lower: 0.142 for the first, 0.179 for the second.

Going from U9C U70G to U9A G56C, the self-cleavage falls from 0.687 to 0.0939.

Going from U9C G54C to U9C G54A, the self-cleavage rises from 0.413 to 0.501.

First: C10A G34C
Second: C10G A39U
The self-cleavage of the first is higher: 0.942 for the first, 0.273 for the second.

Going from C10A A36C to U9G A61G, the self-cleavage falls from 0.528 to 0.257.

First: C10G G69A
Second: C10G G69U
The self-cleavage of the first is higher: 0.299 for the first, 0.142 for the second.

Compared with C10A G29U, C10A G29C is higher in self-cleavage: 0.0922 for the first, 0.16 for the second.

Compared with U9C U14C, U9G U60G is lower in self-cleavage: 0.533 for the first, 0.322 for the second.

First: C10U A24G
Second: C10U A24C
The self-cleavage of the first is higher: 0.885 for the first, 0.613 for the second.

Compared with C10U A24U, U9G G27C is lower in self-cleavage: 0.778 for the first, 0.115 for the second.

Going from U8G G34U to U9G A36C, the self-cleavage falls from 1.28 to 0.381.

Compared with U9G A36G, U9G A36U is lower in self-cleavage: 0.793 for the first, 0.431 for the second.

First: U9A A39U
Second: C10A A59U
The self-cleavage of the first is higher: 0.335 for the first, 0.234 for the second.

Compared with U9C U33C, U8G G32C is higher in self-cleavage: 0.104 for the first, 0.12 for the second.

Going from U8G G32U to U9A A59G, the self-cleavage rises from 0.0934 to 0.154.

Compared with U9A A59C, U9G C12G is higher in self-cleavage: 0.0956 for the first, 0.53 for the second.

First: U9G C12A
Second: U9G U62G
The self-cleavage of the first is higher: 0.499 for the first, 0.154 for the second.

First: C10G C37A
Second: U8G G68A
The self-cleavage of the first is higher: 0.22 for the first, 0.119 for the second.

First: U8G G68U
Second: U9A A28C
The self-cleavage of the first is higher: 0.268 for the first, 0.266 for the second.

Going from U9A A28G to U9C U58C, the self-cleavage falls from 0.748 to 0.747.

First: U8G U9A
Second: C10G U67C
The self-cleavage of the first is higher: 0.734 for the first, 0.172 for the second.

Going from C10G U67A to U9A A71G, the self-cleavage rises from 0.191 to 0.707.

First: C10G G32U
Second: U8G U60A
The self-cleavage of the first is lower: 0.15 for the first, 0.647 for the second.

Going from U8G U60C to U9A A49U, the self-cleavage falls from 0.845 to 0.179.

First: U9G A23C
Second: U9G A23U
The self-cleavage of the first is higher: 0.589 for the first, 0.482 for the second.

Compared with U8G U62G, C10G C65G is higher in self-cleavage: 0.163 for the first, 0.246 for the second.

Compared with C10U A41U, C10U A41C is higher in self-cleavage: 0.817 for the first, 1.03 for the second.

Compared with U9G A28U, U9G U63A is lower in self-cleavage: 0.46 for the first, 0.102 for the second.

Going from C10U A22C to C10G A22U, the self-cleavage rises from 0.631 to 0.661.

Compared with C10A G68C, U8G G57A is lower in self-cleavage: 0.114 for the first, 0.102 for the second.

First: U8G G57C
Second: U9G A45C
The self-cleavage of the first is higher: 0.192 for the first, 0.0983 for the second.

First: U9G A59C
Second: U9G A59U
The self-cleavage of the first is higher: 0.275 for the first, 0.101 for the second.

First: U9G G29U
Second: U9G G29A
The self-cleavage of the first is higher: 0.1 for the first, 0.0566 for the second.

Compared with U9G G29C, U9A C65U is higher in self-cleavage: 0.129 for the first, 0.335 for the second.

Going from U9A C65G to U9C G25A, the self-cleavage rises from 0.203 to 0.24.

U9C G25C and U9C C50U are the same in self-cleavage: 0.314 for the first, 0.314 for the second.

First: U9C C50G
Second: C10A A71U
The self-cleavage of the first is lower: 0.258 for the first, 0.557 for the second.

Going from U9G C16G to C10G G29A, the self-cleavage falls from 0.431 to 0.0932.

First: C10G G29C
Second: C10A A43U
The self-cleavage of the first is lower: 0.106 for the first, 0.133 for the second.

First: C10U A39U
Second: C10A C12U
The self-cleavage of the first is lower: 0.334 for the first, 0.452 for the second.

First: C10A C12G
Second: C10G A43G
The self-cleavage of the first is higher: 0.556 for the first, 0.175 for the second.

Compared with C10A A24U, C10A A24G is lower in self-cleavage: 0.584 for the first, 0.57 for the second.

Compared with U9G G51A, U9C A26U is lower in self-cleavage: 0.626 for the first, 0.546 for the second.

Going from U9A A44G to C10U A26U, the self-cleavage rises from 0.0648 to 0.624.

Going from C10A U53G to C10G A64C, the self-cleavage falls from 0.514 to 0.169.

Compared with U9C G19A, C10A G51A is lower in self-cleavage: 0.704 for the first, 0.695 for the second.

Going from U9C A41G to C10A C48U, the self-cleavage falls from 0.706 to 0.0572.

Going from C10A C48G to C10A C48A, the self-cleavage falls from 0.157 to 0.102.

Compared with U9C C37U, U9C C37G is higher in self-cleavage: 0.529 for the first, 0.595 for the second.

Going from U9A U62G to C10G G27A, the self-cleavage rises from 0.122 to 0.405.

First: C10G G27C
Second: U9C U60G
The self-cleavage of the first is lower: 0.147 for the first, 0.615 for the second.

Going from U9A G13C to C10G A44C, the self-cleavage falls from 0.399 to 0.126.

Compared with C10G A44U, C10G A44G is lower in self-cleavage: 0.133 for the first, 0.108 for the second.

Going from U9A G32A to C10G U53C, the self-cleavage rises from 0.179 to 0.59.

Going from C10G U53A to C10G A35C, the self-cleavage rises from 0.663 to 0.726.

Going from C10G A35G to U9A U52G, the self-cleavage falls from 0.656 to 0.472.

Going from C10A U67A to U9G G57A, the self-cleavage rises from 0.0418 to 0.132.

Compared with C10G G17U, C10G G17C is lower in self-cleavage: 0.539 for the first, 0.533 for the second.

Compared with U8G U14G, U8G U14C is higher in self-cleavage: 0.542 for the first, 0.814 for the second.

Compared with U8G U14A, U9A A22G is higher in self-cleavage: 0.554 for the first, 0.605 for the second.

Compared with U9A A22C, U9C G32U is lower in self-cleavage: 0.773 for the first, 0.0498 for the second.

Compared with C10G C66U, C10G C66G is lower in self-cleavage: 0.347 for the first, 0.189 for the second.

First: U9A U58G
Second: U9A U58A
The self-cleavage of the first is higher: 0.494 for the first, 0.344 for the second.

First: U9G C38U
Second: U9G C38A
The self-cleavage of the first is higher: 0.41 for the first, 0.243 for the second.

Going from C10G G56A to C10U A30C, the self-cleavage falls from 0.156 to 0.146.

First: U9G G25A
Second: C10A U63A
The self-cleavage of the first is higher: 0.153 for the first, 0.118 for the second.

First: U9A U14C
Second: U9A U14G
The self-cleavage of the first is lower: 0.62 for the first, 0.74 for the second.

Compared with U9A A24U, U9A A24C is higher in self-cleavage: 0.466 for the first, 0.514 for the second.

Compared with U9A U53C, U9A U53G is lower in self-cleavage: 0.732 for the first, 0.703 for the second.

Compared with C10U A61G, C10U A61C is higher in self-cleavage: 0.201 for the first, 0.311 for the second.

Going from C10G A36G to U9A G68A, the self-cleavage falls from 0.778 to 0.223.

Compared with U9C A44U, U9G U58G is higher in self-cleavage: 0.247 for the first, 0.579 for the second.

First: U9G U58C
Second: C10G A28G
The self-cleavage of the first is lower: 0.794 for the first, 0.954 for the second.

Going from C10G A28U to C10A C65U, the self-cleavage falls from 0.586 to 0.274.

In the case of C10G C46A, the self-cleavage is reported as 0.106.
